According to PMC7547085, “Specific and direct modulation of the interaction between adhesion GPCR GPR56/ADGRG1 and tissue transglutaminase 2 using synthetic ligands” (Scientific Reports, 2020):

T1: mouse tissue transglutaminase 2 C-terminal D3D4 domains (mTG2 D3D4) (mouse, UniProt P21981 471-686, biotin on the AVI-tag)
T1 construct: tissue transglutaminase 2 (TG2), mouse, domains D3 and D4, residues T471-A686; Used on M280 beads, or tetramerized with neutravidin-650 to stain cells; not shown: AVI-tag, N-terminal, kept
T1 sequence (looked up): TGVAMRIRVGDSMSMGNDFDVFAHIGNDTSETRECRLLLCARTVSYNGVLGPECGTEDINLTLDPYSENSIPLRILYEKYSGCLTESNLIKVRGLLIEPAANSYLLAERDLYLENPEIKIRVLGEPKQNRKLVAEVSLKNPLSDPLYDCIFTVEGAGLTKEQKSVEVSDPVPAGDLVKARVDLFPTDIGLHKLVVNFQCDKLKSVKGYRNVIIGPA

T2: mouse tissue transglutaminase 2 C-terminal D3D4 domains (mTG2 D3D4) (mouse, UniProt P21981 471-686, biotin on the AVI-tag)
T2 chain: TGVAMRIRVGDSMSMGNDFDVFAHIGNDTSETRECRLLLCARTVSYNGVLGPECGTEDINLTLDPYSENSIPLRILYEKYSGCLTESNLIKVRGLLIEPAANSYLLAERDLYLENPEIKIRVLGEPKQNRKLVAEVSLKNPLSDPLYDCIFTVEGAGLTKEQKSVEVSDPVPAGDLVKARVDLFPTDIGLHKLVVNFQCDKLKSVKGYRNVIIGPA


Key:
[1] = target: mouse tissue transglutaminase 2 C-terminal D3D4 domains (mTG2 D3D4) (mouse) (UniProt P21981); experiment: bead-binding assay read by flow cytometry; titration of monomeric biotinylated GPR56 fragments on TG2 D3D4-coated M280 beads; detected with neutravidin-650; one-to-one binding fit; apparent KD
[2] = target: T1, mouse tissue transglutaminase 2 …; experiment: as above; conditions: both partners purified
[3] = target: T2, mouse tissue transglutaminase 2 …; experiment: FACS

| Molecule | Kd [2] [nM] | other results |
| --- | --- | --- |
| human GPR56 ECR H89A (domain or fragment) |  | Kd [1]: 790 nM |
| human GPR56/ADGRG1 extracellular region (ECR), wild type (domain or fragment, biotin on the AVI-tag) RGHREDFRFCSQRNQTHRSSLHYKPTPDLRISIENSEEALTVHAPFPAAHPASRSFPDPRGLYHFCLYWNRHAGRLHLLYGKRDFLLSDKASSLLCFQHQEESLAQGPPLLATSVTSWWSPQNISLPSAASFTFSFHSPPHTAAHNASVDMCELKRDLQLLSQFLKHPQKASRRPSAAPASQQLQSLESKLTSVRFMGDMVSFEEDRINATVWKLQPTAGLQDLHIHSRQEEEQSEIMEYSVLLPRTLFQRTKGRSGEAEKRLLLVDFSSQALFQDKNSSQVLGEKVLGIVVQNTKVANLTEPVVLTFQHQLQPKNVTLQCVFWVEDPTLSSPGHWSSAGCETVRRETQTSCFCNHLTYFAVLMVSSVEVDAVHKH | 330 ± 15 |  |
| mouse GPR56 ECR S150A (domain or fragment, biotin on the AVI-tag) GSPREDFRFCGQRNQTQQSTLHYDQSSEPHIFVWNTEETLTIRAPFLAAPDIPRFFPEPRGLYHFCLYWSRHTGRLHLRYGKHDYLLSSQASRLLCFQKQEQSLKQGAPLIATSVSSWQIPQNTALPGAPSFIFSFHNAPHKVSHNASVDMCDLKKELQQLSRYLQHPQKAAKRPTAAFISQQLQSLESKLTSVSFLGDTLSFEEDRVNATVWKLPPTAGLEDLHIHSQKEEEQSEVQAYSLLLPRAVFQQTRGRRRDDAKRLLVVDFSSQALFQDKNSSQVLGEKVLGIVVQNTKVTNLSDPVVLTFQHQPQPKNVTLQCVFWVEDPASSSTGSWSSAGCETVSRDTQTSCLCNHLTYFAVLMVSSTEVEATHKHY |  | fold increase in affinity against wild type [1]: 40 fold; Kd [3]: 11 nM |
| mouse GPR56/ADGRG1 extracellular region (ECR), wild type (domain or fragment, biotin on the AVI-tag) PREDFRFCGQRNQTQQSTLHYDQSSEPHIFVWNTEETLTIRAPFLAAPDIPRFFPEPRGLYHFCLYWSRHTGRLHLRYGKHDYLLSSQASRLLCFQKQEQSLKQGAPLIATSVSSWQIPQNTSLPGAPSFIFSFHNAPHKVSHNASVDMCDLKKELQQLSRYLQHPQKAAKRPTAAFISQQLQSLESKLTSVSFLGDTLSFEEDRVNATVWKLPPTAGLEDLHIHSQKEEEQSEVQAYSLLLPRAVFQQTRGRRRDDAKRLLVVDFSSQALFQDKNSSQVLGEKVLGIVVQNTKVTNLSDPVVLTFQHQPQPKNVTLQCVFWVEDPASSSTGSWSSAGCETVSRDTQTSCLCNHLTYFAVLMVS | 440 ± 20 |  |
| mouse GPR56 ECR H89A (domain or fragment, biotin on the AVI-tag) PREDFRFCGQRNQTQQSTLHYDQSSEPHIFVWNTEETLTIRAPFLAAPDIPRFFPEPRGLYAFCLYWSRHTGRLHLRYGKHDYLLSSQASRLLCFQKQEQSLKQGAPLIATSVSSWQIPQNTSLPGAPSFIFSFHNAPHKVSHNASVDMCDLKKELQQLSRYLQHPQKAAKRPTAAFISQQLQSLESKLTSVSFLGDTLSFEEDRVNATVWKLPPTAGLEDLHIHSQKEEEQSEVQAYSLLLPRAVFQQTRGRRRDDAKRLLVVDFSSQALFQDKNSSQVLGEKVLGIVVQNTKVTNLSDPVVLTFQHQPQPKNVTLQCVFWVEDPASSSTGSWSSAGCETVSRDTQTSCLCNHLTYFAVLMVS | 880 ± 80 |  |
